In assay [1] the target is T1, recombinant human sPLA2-GIB (mature secreted group IB pancreatic phospholipase A2) (human, UniProt P04054 23-148). The assay can be described thus: cell-based or functional assay.
Assay [2] concerns the target T2, recombinant human pro-sPLA2-GIB (human, UniProt P04054 16-148).
T2 construct: also called pro-sPLA2-IB; proPLA2-GIB
The assay can be described thus: SPR (BIAcore 2000), antibody captured on anti-mouse IgG surface, antigen in solution. On the procedure: (§1) The affinity constants (KD) of the pro-sPLA2-IB and sPLA2-IB binding to the #14G9 antibody were determined by surface kinetics on a real-time biosensor surface plasmon resonance assay (BIAcore™). More specifically, the affinity of the antibodies for human pro-sPLA2-IB and sPLA2-IB was measured using a BIAcore® 2000. The antibody was captured on an anti-mouse IgG surface and exposed to various concentrations of recombinant pro-sPLA2-IB and sPLA2-IB protein. Kinetic analysis using BIAevaluation™ software was performed to obtain the association and dissociation rate constants.

Assay [3] has as its target T1, recombinant human sPLA2-GIB (mature …). The assay is described as above. As to the method:
as §1

For assay [4], the target named is T2, recombinant human pro-sPLA2-GIB. The assay can be described thus: competitive ELISA: constant antibody premixed with dilutions of soluble antigen, free antibody caught on antigen-coated plate. On the procedure:
(§2) Binding affinities of the antibodies to pro-sPLA2-IB and sPLA2-IB were measured by plate-based competition immunoassay. For the competition ELISA, briefly, constant amounts of antibody at different levels were premixed with serial dilutions of antigen protein, human sPLA2-IB or pro-sPLA2-IB, ranging from 0 to 10 µg/ml, and incubated for two hours at room temperature to reach pseudo-binding equilibrium between the antibody and antigen. These solutions were then transferred to 96-well sPLA2-IB or pro-sPLA2-IB pre-coated plates to allow the free-antibody in the mixtures to bind to plate-coated sPLA2-IB or pro-sPLA2-IB. The plates were typically coated with 30 to 100 ng of human sPLA2-IB or pro-sPLA2-IB protein in PBS solution overnight at 4° C. followed by BSA nonspecific blocking. After washing off excess antibody in solution, plate-bound antibodies were detected with an HRP-conjugated goat anti-mouse IgG or IgA polyclonal antibody reagent and developed using colorimetric substrate. The dependency of the signals on the concentrations of antigen in solution was analyzed with a 4-parameter fit analysis using Prism™ software (Graph Pad) and reported as IC50.
On the technique in general: ELISA stands for enzyme-linked immunosorbent assay.

The target of assay [5] is T1, recombinant human sPLA2-GIB (mature …). The assay is described as above. On the procedure:
as §2

For assay [6] the target is unchanged. The assay can be described thus: indirect ELISA: antigen coated on the plate, #14G9 mAb titrated (x axis mAb, Log M, -9.5 to -6.5), OD450 nm readout. As to the method: (§3) Microplate wells were typically coated with 100 ng of recombinant human sPLA2-X, sPLA2-IB or pro-sPLA2-IB in PBS pH 7.5, overnight at 4° C. Sample wells were washed three times with PBS containing 0.05% Tween 20. After final washing, sample wells were treated with blocking solution containing 1% bovine serum albumin (BSA) in PBS buffer for 60 min at room temperature. Following washing with PBS containing 0.05% Tween 20, increasing amounts (10 ng/mL up to 3 μg/mL) of #14G9 mAb were added to antigen-coated wells. and incubated for 120 min at room temperature. Following washing with PBS containing 0.05% Tween 20, the binding of #14G9 mAb was detected with an HRP-conjugated goat anti-mouse IgG or IgA polyclonal antibody reagent and developed using colorimetric substrate. The dependency of the signals on the concentrations of antigen in solution was analyzed with a 4-parameter fit analysis using Prism™ software (Graph Pad) and reported as EC50.

Assay [7] addresses T2, recombinant human pro-sPLA2-GIB. The assay can be described thus: indirect ELISA: antigen coated on the plate, #14G9 mAb titrated (x axis mAb, Log M, -9.5 to -6.5), OD450 nm readout; the curve reaches only OD450 about 1.6 at the highest concentration, no upper plateau. On the procedure:
as §3

Assay [8] addresses T3, immune complex of #2B with sPLA2-GIB (human, UniProt P04054 23-148).
T3 construct: also called immune complexe of #2B; antibody-antigen immune complex
The assay can be described thus: flow cytometry, antibody-antigen immune complex on CHO cells expressing the receptor. As to the method: (§4) Antibody-antigen immune complex were generated by co-incubation of 10 µg/ml of humanized antibodies and 5 μg/ml of sPLA2-GIB for 30 min at 37° C. Immune complexes were then incubated with 1×10⁵ CHO cells stably expressing human FcγRs for 30 min on ice. The cells were then washed, detached, fixed, and analyzed by flow cytometry (FACSCalibur; BD Biosciences).
(§5) The binding of monomeric #2B, #2B1 and #2B2 to human FcγRs was tested by flow cytometry by incubating the mAbs with CHO cells stably expressing human FcγRI, FcγRIIA (H131), FcγRIIA(R131), FcγRIIB, FcγRIIIA(F176), FcγRIIIA(V176), FcγRIIIB(NA1), FcγRIIIB(NA2), and FcγRIIIB(SH), (REF P. Bruhns). As presented in FIG. 9, #2B is binding to hFcγRI and hFcγRIIIA(V176) only, whereas no monomeric binding of #2B1 and #2B2 to all tested hFcγRs was observed. Antibody-antigen immune complex was tested by first incubating the mAb with the antigen and then, incubating the immune complexes formed with CHO cells stably expressing human FcγRs. The immune complexe of #2B is binding to all tested hFcγRs, except hFcγRIIB (FIG. 10). Weak binding is observed for immune complex of #2B1 to hFcγRIIIA(V176) (data not shown), whereas no immune complex binding of #2B2 to any tested hFcγRs (data not shown).

For assay [9], the target named is immune complex of #2B2 with sPLA2-GIB (human, UniProt P04054 23-148). The description is as above. As to the method:
as §4, §5

T1 sequence (P04054 23-148): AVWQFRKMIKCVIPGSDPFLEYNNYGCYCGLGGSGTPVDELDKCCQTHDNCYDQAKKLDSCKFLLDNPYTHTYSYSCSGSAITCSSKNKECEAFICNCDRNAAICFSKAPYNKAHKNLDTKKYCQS
T2 sequence (P04054 16-148): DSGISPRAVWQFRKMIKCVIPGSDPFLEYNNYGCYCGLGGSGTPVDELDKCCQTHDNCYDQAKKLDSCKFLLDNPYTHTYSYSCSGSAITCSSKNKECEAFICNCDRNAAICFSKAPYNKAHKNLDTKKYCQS
Chain of immune complex of #2B2 with sPLA2-GIB (heavy, as listed by the source, chain 1 of 3): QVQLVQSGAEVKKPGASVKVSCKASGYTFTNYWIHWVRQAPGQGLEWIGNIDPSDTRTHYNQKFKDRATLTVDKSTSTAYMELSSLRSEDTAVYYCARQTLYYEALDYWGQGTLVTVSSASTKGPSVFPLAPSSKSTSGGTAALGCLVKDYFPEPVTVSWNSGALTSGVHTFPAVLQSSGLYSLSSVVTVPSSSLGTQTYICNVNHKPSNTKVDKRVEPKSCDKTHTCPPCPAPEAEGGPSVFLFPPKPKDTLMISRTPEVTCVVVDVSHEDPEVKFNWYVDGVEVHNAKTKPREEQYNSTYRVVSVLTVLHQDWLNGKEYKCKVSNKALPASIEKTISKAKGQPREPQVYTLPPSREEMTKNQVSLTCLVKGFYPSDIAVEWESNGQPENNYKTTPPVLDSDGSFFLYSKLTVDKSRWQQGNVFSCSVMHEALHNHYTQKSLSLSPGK
Chain of immune complex of #2B2 with sPLA2-GIB (light, as listed by the source, chain 2 of 3): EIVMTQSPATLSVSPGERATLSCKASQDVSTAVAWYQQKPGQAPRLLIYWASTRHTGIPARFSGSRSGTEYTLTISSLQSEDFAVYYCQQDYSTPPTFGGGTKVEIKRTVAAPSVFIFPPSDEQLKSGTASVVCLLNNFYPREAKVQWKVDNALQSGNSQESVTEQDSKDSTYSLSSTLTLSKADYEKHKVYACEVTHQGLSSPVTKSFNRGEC
Chain of immune complex of #2B2 with sPLA2-GIB (P04054 23-148, chain 3 of 3): as the sequence (P04054 23-148) above
T3 sequence (heavy, as listed by the source, chain 1 of 3): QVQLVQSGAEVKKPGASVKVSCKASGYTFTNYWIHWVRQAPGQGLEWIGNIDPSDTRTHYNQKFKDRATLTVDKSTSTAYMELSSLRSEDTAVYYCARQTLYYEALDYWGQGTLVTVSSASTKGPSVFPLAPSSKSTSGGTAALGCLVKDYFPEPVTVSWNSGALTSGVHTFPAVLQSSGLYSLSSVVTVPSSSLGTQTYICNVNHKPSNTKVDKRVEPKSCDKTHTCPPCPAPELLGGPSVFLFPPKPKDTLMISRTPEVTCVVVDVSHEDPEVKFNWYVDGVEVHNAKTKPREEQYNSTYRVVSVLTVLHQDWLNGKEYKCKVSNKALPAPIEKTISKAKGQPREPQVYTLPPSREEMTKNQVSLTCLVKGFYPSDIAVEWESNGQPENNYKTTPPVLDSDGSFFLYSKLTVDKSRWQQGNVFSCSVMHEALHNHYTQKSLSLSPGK
T3 sequence (light, as listed by the source, chain 2 of 3): as the sequence (light, as listed by the source, chain 2 of 3) above
T3 sequence (P04054 23-148, chain 3 of 3): as the sequence (P04054 23-148) above

B1: #14G9 mAb (mouse anti-sPLA2-GIB monoclonal antibody) (antibody, V domains shown)
VH: QVQLQQPGAELVKPGASVKLSCKASGYTFTNYWIHWVKRRPGQGLEWIGNIDPSDTRTHYNQKFKDKATLAVDKSSSTAYMQLSSLTSEDSAVFYCARQTLYYEALDYWGQGTTLTVSS
VL: DIVMTQSHKLMSTSVGDRVSITCKASQDVSTAVAWYQEKPGQSPKLLIYWASTRHTGVPNRFTGSRSGTDYTLTISSVQAEDLALYYCQQDYSTPPTFGAGTKLELKR
notes: Mouse hybridoma antibody; also called monoclonal antibody 14G9
Turning to B1, in [1], the “EC50 for the restoration of the sPLA2-IB effect on IL-7 induced phosphoSTAT5 nuclear translocation in human CD4 T cells (75 nM sPLA2-GIB)” value worked out at 2.2 ng/mL. Moreover, in assay [1], the “inhibition of sPLA2-IB enzymatic activity, EC50” value stood at 2.3 nM. Further, the Kd (commonly the equilibrium constant for the complex coming apart) in [2] was found to be 174 nM; in assay [3], 0.34 nM. Besides, the IC50 – broadly, the midpoint of a concentration-inhibition curve – was 109 nM in assay [4] and 1 nM in assay [5]. The results for the EC50 in assay [6] and in assay [7] were 6 nM and 158 nM, respectively.

B2: human FcγRIIB (receptor, UniProt P31994 43-310, looked up)
chain: TPAAPPKAVLKLEPQWINVLQEDSVTLTCRGTHSPESDSIQWFHNGNLIPTHTQPSYRFKANNNDSGEYTCQTGQTSLSDPVHLTVLSEWLVLQTPHLEFQEGETIVLRCHSWKDKPLVKVTFFQNGKSKKFSRSDPNFSIPQANHSHSGDYHCTGNIGYTLYSSKPVTITVQAPSSSPMGIIVAVVTGIAVAAIVAAVVALIYCRKKRISALPGYPECREMGETLPEKPANPTNPDEADKVGAENTITYSLLMHPDALEEPDDQNRI
notes: whole, on cells; also called hFcγRIIB
Regarding B2, the binding result in assay [8] and in assay [9] was “no binding” in each case.

(Values after patent US20210047432A1 (DIACCURATE, published 2021).)
